Data published in IntAct's records for PubMed 11587540.

B1: Emerin (Homo sapiens), P50402 (parent)
chain: MDNYADLSDTELTTLLRRYNIPHGPVVGSTRRLYEKKIFEYETQRRRLSPPSSSAASSYSFSDLNSTRGDADMYDLPKKEDALLYQSKGYNDDYYEESYFTTRTYGEPESAGPSRAVRQSVTSFPDADAFHHQVHDDDLLSSSEEECKDRERPMYGRDSAYQSITHYRPVSASRSSLDLSYYPTSSSTSFMSSSSSSSSWLTRRAIRPENRAPGAGLGQDRQVPLWGQLLLFLVFVIVLFFIYHFMQAEEGNPF

Variants of: B1
Settings: with lmna_human LMNA

Row | Variant | effect of a mutation on the interaction
1 | Q133H | with no effect
